The target of this assay is T1, human Mad1^CTD (human, UniProt Q9Y6D9 597-718).
T1 chain: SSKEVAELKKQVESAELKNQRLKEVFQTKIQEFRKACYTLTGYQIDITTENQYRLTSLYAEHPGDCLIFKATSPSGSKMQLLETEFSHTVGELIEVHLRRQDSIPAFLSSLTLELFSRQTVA
Nature of the assay: ITC.

Square brackets hold non-standard residues; d marks the D form. Ends that are not written are not given here. pT = C[C@@H](OP(=O)(O)O)[C@H](N)C(=O)O; pS = N[C@@H](COP(=O)(O)O)C(=O)O

Usually Kd stands for the free concentration of one partner at which half of the binding sites on the other are occupied at equilibrium, for simple one-to-one binding. Low readings indicate tighter binding, high ones weaker binding. For the molecule CKVQPSP[pT]VHTKEALGFIMNMFQA [human Bub1 CM phospho-peptide pT461], binding was put at a Kd of 15.7 µM.
Turning to CKVQP[pS]P[pT]VHTKEALGFIMNMFQA [human Bub1 CM phospho-peptide pS459-pT461], binding was put at a Kd of 3.1 µM.

The values above are taken from article PMC5268738 (2017).
